The target of this assay is T1, murine GPC3-His protein (Sino Biological, Cat. No. 50989-M08B) (murine, UniProt Q8CFZ4 25-558).
T1 construct: Bought protein; also called murine GPC3 protein; mouse GPC3-his protein; not shown: His tag
Description: ELISA, coated antigen.

T1 sequence (Q8CFZ4 25-558 limits assumed): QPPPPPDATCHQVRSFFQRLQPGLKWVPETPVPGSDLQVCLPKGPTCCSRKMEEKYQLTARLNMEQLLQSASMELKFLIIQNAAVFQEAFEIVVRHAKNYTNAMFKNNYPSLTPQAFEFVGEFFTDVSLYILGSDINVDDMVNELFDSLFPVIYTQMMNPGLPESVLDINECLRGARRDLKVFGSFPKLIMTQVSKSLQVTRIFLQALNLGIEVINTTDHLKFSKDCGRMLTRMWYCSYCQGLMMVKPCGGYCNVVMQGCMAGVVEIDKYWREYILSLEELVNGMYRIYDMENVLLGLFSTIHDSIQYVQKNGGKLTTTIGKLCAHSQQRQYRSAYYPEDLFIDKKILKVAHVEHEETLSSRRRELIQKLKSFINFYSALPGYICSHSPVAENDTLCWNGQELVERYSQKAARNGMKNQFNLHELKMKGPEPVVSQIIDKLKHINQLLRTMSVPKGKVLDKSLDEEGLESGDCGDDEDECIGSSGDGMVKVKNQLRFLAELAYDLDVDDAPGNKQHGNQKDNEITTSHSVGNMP

B1: hAb006LH1L1b (antibody, human IgG1, V domains shown)
VH: EVQLVQSGAEVKKPGSSVKVSCKASGYTFSDYEIHWVRQAPGQGLEWMGAIDPKTGNTAYNQKFMGRVTITADKSTSTAYMELSSLRSEDTAVYYCTRYFSFAYWGQGTLVTVSS
VL: DIVMTQTPLSLPVTPGEPASISCRSSQTFVHSNANTYLQWYLQKPGQSPQLLIYKVSNRFSGVPDRFSGSGSGTDFTLKISRVEAEDVGVYYCFQGSHVPYTFGQGTKLEIK
notes: Humanized F3.38.7
In the case of B1, the binding result is “no binding”.

B2: hAb006LH2L1a (antibody, human IgG1, V domains shown)
VH: EVQLVQSGAEVKKPGSSVKVSCKASGYTFTDYEIHWVRQAPGQGLEWMGAIDPKTGNTAYNQKFMGRVTITADKSTSTAYMELSSLRSEDTAVYYCTRYFSFAYWGQGTLVTVSS
VL: DIVMTQTPLSLPVTPGEPASISCRSSQTFVHSDGNTYLQWYLQKPGQSPQLLIYKVSNRFSGVPDRFSGSGSGTDFTLKISRVEAEDVGVYYCFQGSHVPYTFGQGTKLEIK
notes: Humanized F3.38.7
For B2, the binding result was “no binding”.

B3: hAb007LH2L1b (antibody, human IgG1, V domains shown)
VH: EVQLVQSGAEVKKPGSSVKVSCKASGYTFTDYEMHWVRQAPGQGLEWMGTIDPETGNTAYNQKFKGRVTITADKSTSTAYMELSSLRSEDTAVYYCTRPYSLTYWGQGTLVTVSS
VL: DIVMTQTPLSLPVTPGEPASISCRSSQSFVHSNRDTYLQWYLQKPGQSPQLLIYKVSNRFSGVPDRFSGSGSGTDFTLKISRVEAEDVGVYYCFQGSHVPYTFGQGTKLEIK
notes: Humanized F3.81.19
With B3, the binding result is on record as “no binding”.

B4: hAb007LH1L1c (antibody, human IgG1, V domains shown)
VH: EVQLVQSGAEVKKPGSSVKVSCKASGYTFSDYEMHWVRQAPGQGLEWMGTIDPETGNTAYNQKFKGRVTITADKSTSTAYMELSSLRSEDTAVYYCTRPYSLTYWGQGTLVTVSS
VL: DIVMTQTPLSLPVTPGEPASISCRSSQSFVHSNADTYLQWYLQKPGQSPQLLIYKVSNRFSGVPDRFSGSGSGTDFTLKISRVEAEDVGVYYCFQGSHVPYTFGQGTKLEIK
notes: Humanized F3.81.19
In the case of B4, the binding result was “no binding”.

B5: hAb007LH1L1a (antibody, human IgG1, V domains shown)
VH: EVQLVQSGAEVKKPGSSVKVSCKASGYTFSDYEMHWVRQAPGQGLEWMGTIDPETGNTAYNQKFKGRVTITADKSTSTAYMELSSLRSEDTAVYYCTRPYSLTYWGQGTLVTVSS
VL: DIVMTQTPLSLPVTPGEPASISCRSSQSFVHSDGDTYLQWYLQKPGQSPQLLIYKVSNRFSGVPDRFSGSGSGTDFTLKISRVEAEDVGVYYCFQGSHVPYTFGQGTKLEIK
notes: Humanized F3.81.19
B5: the binding result was “no binding”.

B6: hAb007LH1L1d (antibody, human IgG1, V domains shown)
VH: EVQLVQSGAEVKKPGSSVKVSCKASGYTFSDYEMHWVRQAPGQGLEWMGTIDPETGNTAYNQKFKGRVTITADKSTSTAYMELSSLRSEDTAVYYCTRPYSLTYWGQGTLVTVSS
VL: DIVMTQTPLSLPVTPGEPASISCRSSQSFVHSNSDTYLQWYLQKPGQSPQLLIYKVSNRFSGVPDRFSGSGSGTDFTLKISRVEAEDVGVYYCFQGSHVPYTFGQGTKLEIK
notes: Humanized F3.81.19
With B6, the binding result is “no binding”.

B7: hAb007LH1L1 (antibody, human IgG1, V domains shown)
VH: EVQLVQSGAEVKKPGSSVKVSCKASGYTFSDYEMHWVRQAPGQGLEWMGTIDPETGNTAYNQKFKGRVTITADKSTSTAYMELSSLRSEDTAVYYCTRPYSLTYWGQGTLVTVSS
VL: DIVMTQTPLSLPVTPGEPASISCRSSQSFVHSNGDTYLQWYLQKPGQSPQLLIYKVSNRFSGVPDRFSGSGSGTDFTLKISRVEAEDVGVYYCFQGSHVPYTFGQGTKLEIK
notes: Humanized F3.81.19
As to B7, the binding result is reported as “no binding”.

B8: hAb006LH3L1d (antibody, human IgG1, V domains shown)
VH: EVQLVQSGAEVKKPGSSVKVSCKASGYTFTDYEIHWVRQAPGQGLEWMGAIDPKTGNTAYNQKFMGRVTLTADKSTSTAYMELSSLRSEDTAVYYCTRYFSFAYWGQGTLVTVSS
VL: DIVMTQTPLSLPVTPGEPASISCRSSQTFVHSNSNTYLQWYLQKPGQSPQLLIYKVSNRFSGVPDRFSGSGSGTDFTLKISRVEAEDVGVYYCFQGSHVPYTFGQGTKLEIK
notes: Humanized F3.38.7
For the molecule B8, the binding result was “no binding”.

B9: hAb007LH1L1b (antibody, human IgG1, V domains shown)
VH: EVQLVQSGAEVKKPGSSVKVSCKASGYTFSDYEMHWVRQAPGQGLEWMGTIDPETGNTAYNQKFKGRVTITADKSTSTAYMELSSLRSEDTAVYYCTRPYSLTYWGQGTLVTVSS
VL: DIVMTQTPLSLPVTPGEPASISCRSSQSFVHSNRDTYLQWYLQKPGQSPQLLIYKVSNRFSGVPDRFSGSGSGTDFTLKISRVEAEDVGVYYCFQGSHVPYTFGQGTKLEIK
notes: Humanized F3.81.19
For the molecule B9, the binding result was “no binding”.

B10: hAb007LH1L1e (antibody, human IgG1, V domains shown)
VH: EVQLVQSGAEVKKPGSSVKVSCKASGYTFSDYEMHWVRQAPGQGLEWMGTIDPETGNTAYNQKFKGRVTITADKSTSTAYMELSSLRSEDTAVYYCTRPYSLTYWGQGTLVTVSS
VL: DIVMTQTPLSLPVTPGEPASISCRSSQSFVHSNVDTYLQWYLQKPGQSPQLLIYKVSNRFSGVPDRFSGSGSGTDFTLKISRVEAEDVGVYYCFQGSHVPYTFGQGTKLEIK
notes: Humanized F3.81.19
As for B10, the binding result is listed as “no binding”.

B11: hAb006LH3L1a (antibody, human IgG1, V domains shown)
VH: EVQLVQSGAEVKKPGSSVKVSCKASGYTFTDYEIHWVRQAPGQGLEWMGAIDPKTGNTAYNQKFMGRVTLTADKSTSTAYMELSSLRSEDTAVYYCTRYFSFAYWGQGTLVTVSS
VL: DIVMTQTPLSLPVTPGEPASISCRSSQTFVHSDGNTYLQWYLQKPGQSPQLLIYKVSNRFSGVPDRFSGSGSGTDFTLKISRVEAEDVGVYYCFQGSHVPYTFGQGTKLEIK
notes: Humanized F3.38.7
In the case of B11, the binding result is listed as “no binding”.

B12: hAb006LH2L1 (antibody, human IgG1, V domains shown)
VH: EVQLVQSGAEVKKPGSSVKVSCKASGYTFTDYEIHWVRQAPGQGLEWMGAIDPKTGNTAYNQKFMGRVTITADKSTSTAYMELSSLRSEDTAVYYCTRYFSFAYWGQGTLVTVSS
VL: DIVMTQTPLSLPVTPGEPASISCRSSQTFVHSNGNTYLQWYLQKPGQSPQLLIYKVSNRFSGVPDRFSGSGSGTDFTLKISRVEAEDVGVYYCFQGSHVPYTFGQGTKLEIK
notes: Humanized F3.38.7
For the molecule B12, the binding result is on record as “no binding”.

B13: hAb006LH2L1b (antibody, human IgG1, V domains shown)
VH: EVQLVQSGAEVKKPGSSVKVSCKASGYTFTDYEIHWVRQAPGQGLEWMGAIDPKTGNTAYNQKFMGRVTITADKSTSTAYMELSSLRSEDTAVYYCTRYFSFAYWGQGTLVTVSS
VL: DIVMTQTPLSLPVTPGEPASISCRSSQTFVHSNANTYLQWYLQKPGQSPQLLIYKVSNRFSGVPDRFSGSGSGTDFTLKISRVEAEDVGVYYCFQGSHVPYTFGQGTKLEIK
notes: Humanized F3.38.7
On to B13, for which the binding result was “no binding”.

B14: hAb006LH3L1e (antibody, human IgG1, V domains shown)
VH: EVQLVQSGAEVKKPGSSVKVSCKASGYTFTDYEIHWVRQAPGQGLEWMGAIDPKTGNTAYNQKFMGRVTLTADKSTSTAYMELSSLRSEDTAVYYCTRYFSFAYWGQGTLVTVSS
VL: DIVMTQTPLSLPVTPGEPASISCRSSQTFVHSNVNTYLQWYLQKPGQSPQLLIYKVSNRFSGVPDRFSGSGSGTDFTLKISRVEAEDVGVYYCFQGSHVPYTFGQGTKLEIK
notes: Humanized F3.38.7
B14: the binding result is listed as “no binding”.

B15: hAb007LH2L1a (antibody, human IgG1, V domains shown)
VH: EVQLVQSGAEVKKPGSSVKVSCKASGYTFTDYEMHWVRQAPGQGLEWMGTIDPETGNTAYNQKFKGRVTITADKSTSTAYMELSSLRSEDTAVYYCTRPYSLTYWGQGTLVTVSS
VL: DIVMTQTPLSLPVTPGEPASISCRSSQSFVHSDGDTYLQWYLQKPGQSPQLLIYKVSNRFSGVPDRFSGSGSGTDFTLKISRVEAEDVGVYYCFQGSHVPYTFGQGTKLEIK
notes: Humanized F3.81.19
B15: the binding result is listed as “no binding”.

(Values after patent publication US20260116991A1 (HAINAN SIMCERE ZAIMING PHARMACEUTICAL, published 2026).)
